The source of these data is US20240182547A1.

To fix the notation:
B1: 12A1 (antibody, V domains shown)
VH: EVQLVESGGGLIQPGGSLRLSCAGSGFTFSSYTMHWVRQAPGKGLEWVSSITGGSSYVDYSASVKGRFTISRDNAQSSLYLQMNSLRAEDTAVYYCARDDYGSGSYSNWFDPWGQGTLVTVSS
VL: QSVLTQPPSVSGAPGQRVTISCTGSSSDIGAGYDVHWYQQLPGTAPKLLIFANTNRPSGVPDRFSGSKSGASASLAITGLQADDEADYYCQSYDRSLSHVFGTGTKVTVLG
B2: 4G1 (antibody, V domains shown)
VH: QVTLKESGGGLVKPGGSLRLSCAASGFRLSSYGMNWVRQAPGKGLEWVSSISASSSFINYADSVRDRFTISRDNAKNSLYLQMNSLRAEDTAVYYCARDDYGSGSYSNWFDPWGQGTLVTVSS
VL: QSVLTQPPSVSGAPGQRVTISCTGNSSNLGAGYDVHWYQQLPGRAPKLLIFANTNRPSGVPDRFSGSKSGASASLAITSLQADDEADYYCQSYDRSLSHVFGTGTKVTVLG
B3: 3H8 (antibody, V domains shown)
VH: EVQLVESGGGLVKPGGSLRLSCAGSGFTFSSYTMHWVRQAPGKGLEWVSSITGGSSYVDYSASVKGRFTISRDNAQSSLYLQMNSLRAEDTAVYYCARDDYGSGSYSNWFDPWGRGTTVTVSS
VL: QPVLTQPLSASGTPGQRVTISCTGSSSNIGAGYDVHWYQQLPGRAPKLLIFANTNRPSGVPDRFSGSKSGTSASLAITGLQAEDEADYYCQSYDRSLSHVFGTGTKVTVLG
B4: #12m (antibody, V domains shown)
VH: EVQLVESGGGLVKPGGSLRLSCAGSGFAFSSYTMHWVRQAPGKGLEWVSSITGGSSYLDYAHSVKGRFTISRDNGQNSLFLQMNSLRTEDTAVYYCARDDYGSGSYSNYFDPWGQGTLVTVSS
VL: QSVLTQPPSVSGAPGQRVTISCTGSSSNIGAGYDVHWYQQVPGTAPKLLIFGSTNRPSGVPDRFSGSKSGASASLAITGLQTEDEADYYCQSYDRSLSHVFGTGTKVTVLG
B5: 2H1 (antibody, V domains shown)
VH: QVTLKESGGGVVQSGRSLRLSCAASGFTFSSYTMHWVRQAPGKGLEWVSSITGGSSYVDYSASVKGRFTISRDNAQSSLYLQMNSLRAEDTAVYYCARDDYGSGSYSNWFDPWGQGTLVTVSS
VL: QSVLTQPPSVSGAPGQRVTISCTGSSSNIGAGYDVHWYQQLPGRAPKLLIYANTNRPSGVADRFSGSKSGASASLAITGLQADDEADYYCQSYDRSLSHVFGTGTKVTVLG
B6: 10E7 (antibody, V domains shown)
VH: EVQLVESGGGLVKPGGSLRLSCAASGFTFTSYRMHWVRQAPGKGLEWVSSITGGGNYIEYADSVKGRFTISRDNAKNSLDLQMNSLRAEDTAIYYCARDMYGLGSYYSPNYFDSWGQGTLVTVSS
VL: QSVLTQPPSVSGAPGQRVTISCTGSSSNIGAGYDVHWYQQLPGRAPKLLIFANTNRPSGVPDRFSGSKSGASASLAITGLQADDEADYYCQSYDRSLSHVFGTGTKVTVLG
B7: 12B11 (antibody, V domains shown)
VH: EVQLVESGGGVVQPGRSLRLACAASGFTFNSYAMHWVRQAPGKGLEWVSSITGGSSYVDYSASVKGRFTISRDNAQSSLYLQMNSLRAEDTAVYYCARDMYGLGSYYSPNYFDPWGQGTLVTVSS
VL: SYELTQPPSVSGAPGQRVTISCTGSSSNIGAGYDVHWYQQLPGRAPKLLIFANTNRPSGVPDRFSGSKSGTSASLAITGLQAEDEADYYCQSYDSSLSYVFGTGTKVTVLG

The target of the experiment is recombinant F-protein (respiratory syncytial virus (RSV)) (UniProt P03420). Briefly: SPR Biacore T-200, antibody captured on protein A chip, F-protein as analyte. Background: In SPR one partner is held on a chip, and binding of the other changes the refractive index at the surface.
recombinant F-protein (respiratory syncytial virus (RSV)), sequence (P03420 whole entry): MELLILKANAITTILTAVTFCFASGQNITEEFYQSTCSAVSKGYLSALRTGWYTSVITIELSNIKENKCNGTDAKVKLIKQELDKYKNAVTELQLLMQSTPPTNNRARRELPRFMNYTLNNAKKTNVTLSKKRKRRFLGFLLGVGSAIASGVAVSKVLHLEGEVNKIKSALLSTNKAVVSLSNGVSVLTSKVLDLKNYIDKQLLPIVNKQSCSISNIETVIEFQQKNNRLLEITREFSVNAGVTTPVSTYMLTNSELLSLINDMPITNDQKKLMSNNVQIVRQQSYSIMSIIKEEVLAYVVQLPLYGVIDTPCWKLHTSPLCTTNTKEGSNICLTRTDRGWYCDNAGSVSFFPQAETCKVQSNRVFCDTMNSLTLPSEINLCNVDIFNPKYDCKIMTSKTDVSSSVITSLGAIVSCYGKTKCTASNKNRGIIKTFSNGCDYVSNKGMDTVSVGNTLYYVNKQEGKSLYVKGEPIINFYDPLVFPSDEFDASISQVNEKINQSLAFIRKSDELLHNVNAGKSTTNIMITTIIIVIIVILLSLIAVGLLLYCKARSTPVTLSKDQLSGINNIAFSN
One may read the Kd as a measure of binding affinity in units of concentration. What is called koff is a measure of how fast the partners let go of each other. In general, kon refers to the second-order rate constant of association. As to B1, the Kd is 0.0114 nM, the koff amounted to 3.18e-05 s⁻¹ and the kon was 2.8e+06 M⁻¹ s⁻¹.
The matching figures for B2: 0.0341 nM, 6.02e-05 s⁻¹ and 1.77e+06 M⁻¹ s⁻¹.
The matching figures for B3: 0.00397 nM, 6.06e-05 s⁻¹ and 1.53e+07 M⁻¹ s⁻¹.
The matching figures for B4: 0.00677 nM, 2.07e-05 s⁻¹ and 3.06e+06 M⁻¹ s⁻¹.
For B5, the Kd turned out to be 0.00384 nM, the koff is 5.74e-05 s⁻¹ and the kon is 1.5e+07 M⁻¹ s⁻¹.
The matching figures for B6: 0.0138 nM, 2.81e-05 s⁻¹ and 2.03e+06 M⁻¹ s⁻¹.
On to B7, for which the Kd was 0.0115 nM, the koff was 2.89e-05 s⁻¹ and the kon worked out at 2.52e+06 M⁻¹ s⁻¹.
